In data set [1] the target is striatal-enriched tyrosine phosphatase STEP61 (endogenous, rat brain) (rat (endogenous in Sprague-Dawley rat brain)). As to the kind of experiment: non-reducing SDS-PAGE and immunoblot.
Data set [2] deals with the molecule itself. Nature of the data set: non-reducing SDS-PAGE and immunoblot.

Two molecules from article PMC4841919 (Neurobiology of aging, 2016) can be followed below.

What is called stoichiometry N is a count of units in the complex or per binding partner. With “striatal-enriched tyrosine phosphatase STEP61 (endogenous, rat brain) (enzyme)”, in data set [1], the dimer band after N-acetyl cysteine, percent of untreated aged control, cortex was 59.4 % of control; the fold increase of the dimer band in aged rats, cortex turned out to be 6.2 fold; the fold increase of the dimer band in aged rats, hippocampus amounted to 5.9 fold; the stoichiometry N was 2.

B1: V5- and myc-tagged STEP61 (wild type) (enzyme, UniProt P54830-1 1-541, looked up)
chain: MCCSERLLGLPQPVEMEAPDEAEGLPSKQKEMPPPPPPSPPSEPAQKLPPQGAGSHSLTVRSSLCLFAASQFLLACGVLWLSGHGHSWLQNTTDLISSSLTVLNHLGPVAWLGSGTWGIPSLLLVSLTVSLVIVTTLVWHLLKAPPEPPAPLPPEDRRQSVSRQPSFTYSEWMEEKVEDDFLDLDAVPETPVFDCVMDIKPETDPASLTVKSMGLQERRGSNVSLTLDMCTPGCNEEGFGYLVSPREESAHEYLLSASRVLRAEELHEKALDPFLLQAEFFEIPMNFVDPKEYDIPGLVRKNRYKTILPNPHSRVRLTSPDPEDPLSSYINANYIRGYSGEEKVYIATQGPIVSTVADFWRMVWQERTPIIVMITNIEEMNEKCTEYWPEEQVVHDGVEITVQKVIHTEDYRLRLISLRRGTEERSLKHYWFTSWPDQKTPDRAPPLLHLVREVEEAAQQEGPHCSPIIVHCSAGIGRTGCFIATSICCQQLRREGVVDILKTTCQLRQDRGGMIQTCEQYQFVHHAMSLYEKQLSLQSSE
For B1, in data set [2], the “stoichiometry N” value was ≥ 2.
